Reference: FireProtDB (doi:10.1111/j.1432-1033.1992.tb17411.x)

B1: Cystatin-B wild type, P04080 (protein)
chain: MMCGAPSATQPATAETQHIADQVRSQLEEKENKKFPVFKAVSFKSQVVAGTNYFIKVHVGDEDFVHLRVFQSLPHENKPLTLSNYQTNKAKHDELTYF
B2: Cystatin-A wild type, P01040 (protein)
chain: MIPGGLSEAKPATPEIQEIVDKVKPQLEEKTNETYGKLEAVQYKTQVVAGTNYYIKVRAGDNKYMHLKVFKSLPGQNEDLVLTGYQVDKNKDDELTGF

Details: Homo sapiens; pH 5; Thermal; DSC; Sodium acetate 0.02 M; NaCl 0.13 M; reversible: yes; whole UniProt chain shown

| Protein | Tm [°C] | unfolding enthalpy (calorimetric) [kcal/mol] | unfolding enthalpy (van 't Hoff) [kcal/mol] |
| --- | --- | --- | --- |
| B1 | 50.2 | 70 | 73 |
| B2 | 90.8 | 113 | 129 |

Same assay, conditions: Homo sapiens; pH 6.5; Thermal; DSC; Sodium phosphate 0.01 M; NaCl 0.13 M; reversible: no; whole UniProt chain shown

| Protein | Tm [°C] | unfolding enthalpy (calorimetric) [kcal/mol] |
| --- | --- | --- |
| B1 | 64.9 | 78 |

Same assay, conditions: Homo sapiens; pH 8.1; 10 °C; Thermal; DSC; HEPES 0.01 M; NaCl 0.13 M; reversible: yes; whole UniProt chain shown

| Protein | unfolding free energy [kcal/mol] |
| --- | --- |
| B1 | 6 |

Same assay, conditions: Homo sapiens; pH 8.1; 25 °C; Thermal; DSC; HEPES 0.01 M; NaCl 0.13 M; reversible: yes; whole UniProt chain shown

| Protein | unfolding free energy [kcal/mol] |
| --- | --- |
| B1 | 5.9 |

Same assay, conditions: Homo sapiens; pH 8.1; 45 °C; Thermal; DSC; HEPES 0.01 M; NaCl 0.13 M; reversible: yes; whole UniProt chain shown

| Protein | unfolding free energy [kcal/mol] |
| --- | --- |
| B1 | 3.99 |

Same assay, conditions: Homo sapiens; pH 8.1; 50 °C; Thermal; DSC; HEPES 0.01 M; NaCl 0.13 M; reversible: yes; whole UniProt chain shown

| Protein | unfolding free energy [kcal/mol] |
| --- | --- |
| B1 | 3.2 |

Same assay, conditions: Homo sapiens; pH 8.1; Thermal; DSC; HEPES 0.01 M; NaCl 0.13 M; reversible: no; whole UniProt chain shown

| Protein | Tm [°C] | unfolding enthalpy (calorimetric) [kcal/mol] |
| --- | --- | --- |
| B1 | 65.9 | 81 |

Same assay, conditions: Homo sapiens; pH 6.5; Thermal; DSC; Sodium phosphate 0.01 M; NaCl 0.13 M; reversible: yes; whole UniProt chain shown

| Protein | Tm [°C] | unfolding enthalpy (calorimetric) [kcal/mol] | unfolding enthalpy (van 't Hoff) [kcal/mol] |
| --- | --- | --- | --- |
| B2 | 94.5 | 116 | 148 |
